Assay results taken from patent publication US9724381B2 (THE ADMINISTRATORS OF THE TULANE EDUCATIONAL FUND, priority 2009, dated 2017).
Where no end group is shown, it is not given here. [ ]: non-standard residue; d: D form. The star is where a group is joined. Desaminotyrosyl = O=C(CCc1ccc(O)cc1)*

Target: Ghrelin/GHRP/GHS Receptor (Rattus norvegicus, UniProt O08725)
Experiment: In vitro GH release from isolated pituitary glands, pituitary incubation method
Assay type: cell-based
Details: Table 1
Procedure: Hormonal activities were obtained from in vitro studies using pituitaries of 20 day old CD-1 strain Sprague Dawley female rats. Two pituitaries were incubated for a total of 4-6 hours. Medium was removed each hour for RIA of GH level and fresh medium was added again. After two one hour preincubation periods (P1-P2), the vehicle/peptides were added to two one hour incubations (I3-I4). Peptide activity was calculated as the change in the hormonal level (delta) between I3+I4 and P2. For antagonist activity, the incubation was continued for 2 additional hours (I5-I6) where both the peptide and a stimulator of GH secretion was added and the antagonist activity was calculated as the change in the hormonal level (delta) between I5+I6 and P2. The peptides were assayed in triplicate and the hormone was assayed in duplicate. Each value recorded represents the mean of 6. The GH RIA reagents were distributed by the NIH. Control data was collected from isolated pituitary glands treated with only the corresponding vehicle in the absence of peptide or stimulator. Control stimulated data was collected from isolated pituitary glands treated with stimulator alone in the absence of any peptide.

[1] = peptide antagonist 0.3 μg/ml + stimulator His-DTrp-Ala-Trp-DPhe-Lys-NH2 10 ng/ml
[2] = peptide antagonist 1 μg/ml + stimulator His-DTrp-Ala-Trp-DPhe-Lys-NH2 10 ng/ml
[3] = peptide antagonist 3 μg/ml + stimulator His-DTrp-Ala-Trp-DPhe-Lys-NH2 10 ng/ml
[4] = peptide antagonist 10 μg/ml + stimulator His-DTrp-Ala-Trp-DPhe-Lys-NH2 10 ng/ml
[5] = peptide antagonist 30 μg/ml + stimulator His-DTrp-Ala-Trp-DPhe-Lys-NH2 10 ng/ml

Ghrelin/GHRP/GHS Receptor, sequence (O08725 whole entry): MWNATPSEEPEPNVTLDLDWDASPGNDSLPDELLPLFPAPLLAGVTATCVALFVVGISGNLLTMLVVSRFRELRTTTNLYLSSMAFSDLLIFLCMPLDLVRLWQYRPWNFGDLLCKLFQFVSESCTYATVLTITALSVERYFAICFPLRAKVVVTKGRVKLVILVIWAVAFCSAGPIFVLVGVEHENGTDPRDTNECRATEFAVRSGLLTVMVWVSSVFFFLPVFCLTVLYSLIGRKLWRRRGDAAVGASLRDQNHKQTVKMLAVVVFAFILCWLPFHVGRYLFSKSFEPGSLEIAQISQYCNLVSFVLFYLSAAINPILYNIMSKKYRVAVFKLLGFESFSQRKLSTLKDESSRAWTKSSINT

Row | Substance | Change in stimulated GH release versus preincubation (delta) [1] | Change in stimulated GH release versus preincubation (delta) [2] | Change in stimulated GH release versus preincubation (delta) [3] | Change in stimulated GH release versus preincubation (delta) [4] | Change in stimulated GH release versus preincubation (delta) [5] | Change in stimulated GH release versus preincubation (delta) (peptide antagonist 0.1 μg/ml + stimulator His-DTrp-Ala-Trp-DPhe-Lys-NH2 10 ng/ml) | Change in stimulated GH release versus preincubation (delta) (peptide antagonist 100 μg/ml + stimulator His-DTrp-Ala-Trp-DPhe-Lys-NH2 10 ng/ml)
1 | His-DTrp-DLys-Trp-DPhe-Lys-NH2 (H[dW][dK]W[dF]K-NH2; N-terminus assumed; SMILES NCCCC[C@H](NC(=O)[C@@H](Cc1ccccc1)NC(=O)[C@H](Cc1c[nH]c2ccccc12)NC(=O)[C@@H](CCCCN)NC(=O)[C@@H](Cc1c[nH]c2ccccc12)NC(=O)[C@@H](N)Cc1c[nH]cn1)C(N)=O) | 952 ± 200 ng/mL | 324 ± 181 ng/mL | 134 ± 91 ng/mL | -83 ± 132 ng/mL | -175 ± 59 ng/mL |  | 
2 | DesaminoTyr-DTrp-Ser-Trp-DPhe-NH2 ([Desaminotyrosyl][dW]SW[dF]-NH2; SMILES NC(=O)[C@@H](Cc1ccccc1)NC(=O)[C@H](Cc1c[nH]c2ccccc12)NC(=O)[C@H](CO)NC(=O)[C@@H](Cc1c[nH]c2ccccc12)NC(=O)CCc1ccc(O)cc1) |  |  |  | 3119 ± 488 ng/mL | 3258 ± 682 ng/mL |  | 
3 | His-DTrp-DTrp-Phe-Met-NH2 (H[dW][dW]FM-NH2; N-terminus assumed; SMILES CSCC[C@H](NC(=O)[C@H](Cc1ccccc1)NC(=O)[C@@H](Cc1c[nH]c2ccccc12)NC(=O)[C@@H](Cc1c[nH]c2ccccc12)NC(=O)[C@@H](N)Cc1c[nH]cn1)C(N)=O) | 1542 ± 523 ng/mL | 323 ± 69 ng/mL | 445 ± 188 ng/mL | 287 ± 68 ng/mL | -319 ± 95 ng/mL |  | 
4 | His-DTrp-DLys-Trp-DPhe-NH2 (H[dW][dK]W[dF]-NH2; N-terminus assumed; SMILES NCCCC[C@@H](NC(=O)[C@@H](Cc1c[nH]c2ccccc12)NC(=O)[C@@H](N)Cc1c[nH]cn1)C(=O)N[C@@H](Cc1c[nH]c2ccccc12)C(=O)N[C@H](Cc1ccccc1)C(N)=O) | 1765 ± 160 ng/mL |  | 949 ± 178 ng/mL |  | 91 ± 103 ng/mL |  | 
5 | His-DTrp-DArg-Trp-DPhe-NH2 (chain 1 H[dW][dR]W[dF]-NH2; chain 2 H[dW][dR]W[dF]-NH2; not fully specified; printed as His-DTrp-DArg-Trp-DPhe-NH2) |  |  | 341 ± 222 ng/mL | -125 ± 101 ng/mL | -122 ± 44 ng/mL |  | 
6 | DeaminoTyr-DTrp-Ser-Trp-DPhe-Lys-NH2 ([Desaminotyrosyl][dW]SW[dF]K-NH2; SMILES NCCCC[C@H](NC(=O)[C@@H](Cc1ccccc1)NC(=O)[C@H](Cc1c[nH]c2ccccc12)NC(=O)[C@H](CO)NC(=O)[C@@H](Cc1c[nH]c2ccccc12)NC(=O)CCc1ccc(O)cc1)C(N)=O) |  |  |  | 3325 ± 391 ng/mL | 3810 ± 621 ng/mL |  | 
7 | DesaminoTyr-DTrp-Ala-Trp-DPhe-NH2 ([Desaminotyrosyl][dW]AW[dF]-NH2; SMILES C[C@H](NC(=O)[C@@H](Cc1c[nH]c2ccccc12)NC(=O)CCc1ccc(O)cc1)C(=O)N[C@@H](Cc1c[nH]c2ccccc12)C(=O)N[C@H](Cc1ccccc1)C(N)=O) |  |  | 1302 ± 269 ng/mL |  | -959 ± 75 ng/mL |  | 
8 | DesaminoTyr-DTrp-DLys-Trp-DPhe-NH2 ([Desaminotyrosyl][dW][dK]W[dF]-NH2; SMILES NCCCC[C@@H](NC(=O)[C@@H](Cc1c[nH]c2ccccc12)NC(=O)CCc1ccc(O)cc1)C(=O)N[C@@H](Cc1c[nH]c2ccccc12)C(=O)N[C@H](Cc1ccccc1)C(N)=O) | 2404 ± 802 ng/mL | 688 ± 327 ng/mL | -466 ± 432 ng/mL | -1068 ± 318 ng/mL | -576 ± 110 ng/mL | 4297 ± 1061 ng/mL | 
9 | Tyr-DTrp-DLys-Trp-DPhe-NH2 (Y[dW][dK]W[dF]-NH2; N-terminus assumed; SMILES NCCCC[C@@H](NC(=O)[C@@H](Cc1c[nH]c2ccccc12)NC(=O)[C@@H](N)Cc1ccc(O)cc1)C(=O)N[C@@H](Cc1c[nH]c2ccccc12)C(=O)N[C@H](Cc1ccccc1)C(N)=O) |  |  | -480 ± 95 ng/mL |  | -363 ± 66 ng/mL |  | 
10 | Tyr-DTrp-Lys-Trp-DPhe-NH2 (Y[dW]KW[dF]-NH2; N-terminus assumed; SMILES NCCCC[C@H](NC(=O)[C@@H](Cc1c[nH]c2ccccc12)NC(=O)[C@@H](N)Cc1ccc(O)cc1)C(=O)N[C@@H](Cc1c[nH]c2ccccc12)C(=O)N[C@H](Cc1ccccc1)C(N)=O) |  |  |  |  |  |  | -555 ± 121 ng/mL
11 | Tyr-DTrp-DTrp-Phe-Phe-NH2 (Y[dW][dW]FF-NH2; N-terminus assumed; SMILES NC(=O)[C@H](Cc1ccccc1)NC(=O)[C@H](Cc1ccccc1)NC(=O)[C@@H](Cc1c[nH]c2ccccc12)NC(=O)[C@@H](Cc1c[nH]c2ccccc12)NC(=O)[C@@H](N)Cc1ccc(O)cc1) | 1274 ± 329 ng/mL |  |  | 1034 ± 182 ng/mL | -167 ± 157 ng/mL |  | 
